Measurements taken from article PMC10035430.

Assays:
[1] = molecular target: GWS1B form II RubisCO (CbbM) from an uncultivated Gallionellaceae species (uncultivated Gallionellaceae sp. (groundwater aquifer metagenome)); assay: SEC-MALS
[2] = molecular target: GWS1B form II RubisCO (CbbM) from an uncultivated Gallionellaceae species (uncultivated Gallionellaceae sp. (groundwater aquifer metagenome)); assay: SEC
[3] = molecular target: GWS1B form II RubisCO (CbbM) from an uncultivated Gallionellaceae species (uncultivated Gallionellaceae sp. (groundwater aquifer metagenome)); assay: crystal structure

Measured: stoichiometry N

GWS1B form II RubisCO (CbbM) from an uncultivated Gallionellaceae species (enzyme)
6: [1] | [2] | [3]
